Test results reported in patent US20080015165A1, “NOVEL POLYPEPTIDE” (KYOWA HAKKO KOGYO CO., LTD., priority 1998, published 2008).

B1: Fuc-TIV: known human α1,3-fucosyltransferase, previously cloned, expressed in Namalwa cells (protein, UniProt P22083 1-530, looked up)
Alpha-(1,3)-fucosyltransferase …: MRRLWGAARKPSGAGWEKEWAEAPQEAPGAWSGRLGPGRSGRKGRAVPGWASWPAHLALAARPARHLGGAGQGPRPLHSGTAPFHSRASGERQRRLEPQLQHESRCRSSTPADAWRAEAALPVRAMGAPWGSPTAAAGGRRGWRRGRGLPWTVCVLAAAGLTCTALITYACWGQLPPLPWASPTPSRPVGVLLWWEPFGGRDSAPRPPPDCRLRFNISGCRLLTDRASYGEAQAVLFHHRDLVKGPPDWPPPWGIQAHTAEEVDLRVLDYEEAAAAAEALATSSPRPPGQRWVWMNFESPSHSPGLRSLASNLFNWTLSYRADSDVFVPYGYLYPRSHPGDPPSGLAPPLSRKQGLVAWVVSHWDERQARVRYYHQLSQHVTVDVFGRGGPGQPVPEIGLLHTVARYKFYLAFENSQHLDYITEKLWRNALLAGAVPVVLGPDRANYERFVPRGAFIHVDDFPSASSLASYLLFLDRNPAVYRRYFHWRRSYAVHITSFWDEPWCRVCQAVQRAGDRPKSIRNLASWFER
B2: Mouse Fuc-TIX: polypeptide of 359 amino acids (SEQ ID NO:1) encoded by mouse Fuc-TIX cDNA; novel α1,3-fucosyltransferase (protein)
chain: MTSTSKGILRPFLIVCIILGCFMACLLIYIKPTNSWVFSPMESASSVLKMKNFFSTKTDYFNETTILVWVWPFGQTFDLTSCQAMFNIQGCHLTTDRSLYNKSHAVLIHHRDISWDLTNLPQQARPPFQKWIWMNLESPTHTPQKSGIEHLFNLTLTYRRDSDIQVPYGFLTVSTNPFVFEVPSKEKLVCWVVSNWNPEHARVKYYNELSKSIEIHTYGQAFGEYVNDKNLIPTISTCKFYLSFENSIHKDYITEKLYNAFLAGSVPVVLGPSRENYENYIPADSFIHVEDFNSPSELAKYLKEVDKNNKLYLSYFNWRKDFTVNLPRFWESHACLACDHVKRHQEYKSVGNLEKWFWN
modifications: Mouse
notes: novel α1,3-fucosyltransferase

Columns and labels:
[1] = Enzyme activity for a poly-N-acetyllactosamine sugar chain, Namalwa cell extract, HPLC; format: biochemical
Text: Using a poly-N-acetyllactosamine sugar chain, it was examined that to which GlcNAc in the sugar chains, human Fuc-TIX and 5 types of human α1,3-fucosyltransferase (Fuc-TIII, Fuc-TIV, Fuc-TV, Fuc-TVI, and Fuc-TVII) that had been cloned so far transferred fucose.
Control plasmid (pAMo) and the human Fuc-TIX expression plasmid pAMo-FT9 were introduced into Namalwa cells according to the method shown in Example 1 (3), thereby obtaining stable transformants.
Namalwa cells expressing each of the other 5 types of human α1,3-fucosyltransferases (Fuc-TIII, Fuc-TIV, Fuc-TV, Fuc-TVI, and Fuc-TVII) were obtained according to the previous report (Glycoconjugate J., 13, 802-812, Biochem. Biophys. Res. Commun., 237, 131-137, 1997).
The resultant transformants (about 1×10^7) were collected in microtubes (1.5 ml, manufactured by Eppendolf), followed by centrifugation at 550×g for 7 minutes to collect the cells.
The collected cells were washed with 0.9 ml of PBS. The washed cells were suspended in 100 μl of a solution which consisted of 20 mM HEPES (pH 7.2) and 1% TrironX-100, then allowed to stand at 4° C. for 10 minutes. Subsequently the cells were disrupted using a ultrasonicator (Bioruptor; manufactured by COSMO BIO CO., LTD.)
After disruption of the cells, each supernatant was obtained by centrifugation at 550×g for 7 minutes and used as an enzyme sample. A poly-N-acetyllactosamine sugar chain (Galβ1-4GlcNAcβ1-3Galβ1-4GlcNAcβ1-3Galβ1-4GlcNAc) consisting of 6 sugars was fluorescently labeled with 2-aminobenzamide to make a sugar chain (Galβ1-4GlcNAcβ1-3Galβ1-4GlcNAcβ1-3Galβ1-4GlcNAc-2AB: abbreviated as S in FIGS. 13 and 15, and table 3), which was used as a substrate
Florescent labeling was performed using a Signal™ 2-AB glycan labeling kit (manufactured by Oxford GlycoScience). A poly-N-acetyllactosamine sugar chain (Galβ1-4GlcNAcβ1-3Galβ1-4GlcNAcβ1-3Galβ1-4GlcNAc) was prepared according to WO98/03524.
(§1) Samples were allowed to react in 20 μl of an assay solution [50 mM cacodylate (pH 6.8), 5 mM ATP, 10 mM L-fucose, 75 μM […] (manufactured by SIGMA), 25 mM MnCl2, 15 μM fluorescently labeled sugar chain substrate, 6 μl of the cell lysate above] at 37° C. for 2 hours, followed by treatment at 100° C. for 3 minutes to stop the reaction. Next 200 μl of water was added to the samples, and the supernatant was obtained by centrifugation at 10,000×g for 5 minutes. Using an aliquot of the supernatant (10 μl), products were analyzed by HPLC under the following conditions.
(§2) HPLC: • Column—TSK-gel ODS-80TsQA column (4.6×250 mm; TOSOH CORPORATION) • Eluate—0.02 M ammonium acetate (pH 4.0) containing 7% methanol • Elution temperature—50° C. • Flow rate—1.0 ml/min. • Detection—Fluorescence spectrum photometer FB-920 (manufactured by JASCO Corporation) (excitation wavelength: 330 nm, radiation wavelength: 420 nm)

[2] = Enzyme activity for monofucosylpoly-N-acetyllactosamine sugar chain P2, Namalwa cell extract, HPLC; format: biochemical; conditions: relative activity with the activity for P2 assumed to be 1
Protocol: as §1, §2

Namalwa cells = assay: Indirect fluorescent antibody staining of Namalwa cells expressing human Fuc-TIV or Fuc-TIX (VIM-2 and Le^x sugar chains); format: cell-based; conditions: compared to Namalwa cells transfected with pAMo
Protocol: Using an anti-VIM-2 sugar chain antibody (anti-CDw65 antibody, manufactured by Serotec) and anti-Le^x sugar chain antibodies [73-30 (manufactured by […] CORPORATION) and anti-CD15 antibody (C3D-1, manufactured by Dako)], indirect fluorescent antibody staining was performed for Namalwa cells expressing human Fuc-TIV or human Fuc-TIX, and for Namalwa cells transfected with the control vector pAMo, which were constructed in Example 9. The VIM-2 sugar chain is a sugar chain having the structure consisting of Galβ1-4GlcNAcβ1-3Galβ1-4(Fucα1-3)GlcNAc on non-reduced terminal of a sugar chain.
Indirect fluorescent antibody staining was performed according to the method described in Example 1 (3). Anti-VIM-2 sugar chain antibodies, 73-30 and C3D-1 were used after dilution at 1:50, 1:100, and 1:50.

[3] = In vitro α1,3-fucosyltransferase activity, COS-1 cell lysate, pyridylaminated substrate, HPLC; format: biochemical; conditions: activity of human Fuc-TVI for α2,3-sialylLNnT taken as 100; 25 μM substrate, 2 hours at 37° C.; normalized to transcript amount
[4] = as above; format: biochemical; conditions: activity of human Fuc-TVI for α2,3-sialylLNnT taken as 100; 25 μM substrate, 2 hours at 37° C.; normalized to transcript amount; remark: listed apart in the source
Protocol: Each α1,3-fucosyltransferase expression plasmid (15 μg) was introduced into 1×10^7 COS-1 cells.
This introduction was performed by electroporation method using a gene pulser (manufactured by Bio-Rad) according to the Bio-Rad's instructional manual attached thereto. At this time, 1 μg of a luciferase expression vector, which was constructed by inserting β-actin promoter into a Hind III site of a vector pSVOA/L [Experimental Medicine, 7, 96, (1989)] was co-introduced as an index of gene transfer efficiency.
After the gene introduction, COS-1 cells were dispensed into three dishes for cell culture with a diameter of 15 cm and then cultured for 48 hours.
The cells in the remaining two dishes were collected, suspended in a solution (20 mM HEPES (pH 7.4), 2% TrironX-100), then ultrasonicated for a short time period, thereby preparing cell lysate. The protein concentration of the cell lysate was measured using a micro BCA protein assay reagent kit (manufactured by PIERCE).
The enzymatic activities of luciferase and α1,3-fucosyltransferase were measured using the cell lysate. […]
Each of the substrates was allowed to react in assay solution with or without GDP-Fuc (sugar donator), then analyzed with HPLC. […]
The products were detected using a fluorescent spectrum photometer FP-920 (JASCO Corporation) at excitation wavelength of 320 nm and emission wavelength of 400 nm. […]

[5] = relative activity with the activity for P2 assumed to be 1
[6] = substrate S, relative value, total of products P1, P2 and P3 by each enzyme = 100%

Molecule	Enzymatic activity, substrate S, product P1 [1, 5]	Enzymatic activity, substrate S, product P2 [1, 5]	Enzymatic activity, substrate S, product P3 [1, 5]	Production (%) P1 [1, 6]	Production (%) P2 [1, 6]	Production (%) P3 [1, 6]	Enzymatic activity, substrate P2, product P3 [2]	reactivity against the anti-VIM-2 sugar chain antibody (Namalwa cells)	Relative activity of α1,3-fucosyltransferases for substrate LNT [3]	Relative activity of α1,3-fucosyltransferases for substrate α2,3-sialyl LNnT [4]
B1	1.6	4.1	0.5	22.2%	72.0%	5.8%	1.0	significant increase	–	–
B2	–	–	–	–	–	–	–	–	0	0
